Reference: patent US20240110004 (published 2024)
Where no end group is shown, it is not given here.

Target: VCP (UniProt P55072)
Experiment: BLI, VCP immobilized on anti-HIS sensor, analyte in Tris pH 8.4, multivalent

Sequence of VCP (P55072 2-806): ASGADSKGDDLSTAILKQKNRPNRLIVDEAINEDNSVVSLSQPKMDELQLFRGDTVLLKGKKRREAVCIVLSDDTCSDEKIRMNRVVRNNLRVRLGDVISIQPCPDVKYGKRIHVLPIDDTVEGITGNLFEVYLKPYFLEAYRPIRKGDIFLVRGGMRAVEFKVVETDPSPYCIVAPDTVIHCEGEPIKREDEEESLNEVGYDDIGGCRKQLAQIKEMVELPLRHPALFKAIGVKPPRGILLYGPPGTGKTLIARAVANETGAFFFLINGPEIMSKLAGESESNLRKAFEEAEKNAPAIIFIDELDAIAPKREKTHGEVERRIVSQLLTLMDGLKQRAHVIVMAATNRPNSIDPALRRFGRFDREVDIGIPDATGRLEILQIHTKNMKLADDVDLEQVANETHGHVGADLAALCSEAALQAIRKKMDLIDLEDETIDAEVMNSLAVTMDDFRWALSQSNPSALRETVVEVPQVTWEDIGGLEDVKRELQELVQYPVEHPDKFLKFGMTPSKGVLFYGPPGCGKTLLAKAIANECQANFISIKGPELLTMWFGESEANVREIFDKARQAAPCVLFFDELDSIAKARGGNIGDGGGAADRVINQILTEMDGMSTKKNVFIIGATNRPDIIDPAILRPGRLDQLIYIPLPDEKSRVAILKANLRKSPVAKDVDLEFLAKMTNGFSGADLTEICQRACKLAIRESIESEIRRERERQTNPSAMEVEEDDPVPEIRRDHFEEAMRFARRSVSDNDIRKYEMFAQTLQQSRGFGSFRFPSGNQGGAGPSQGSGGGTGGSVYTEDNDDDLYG

Kd: 0.092 µM
B1: P1 (peptide)
chain: HVLVMSATRR
modifications: not fully specified (N-terminus); also: multivalent polymer conjugate
